Experimental findings from the supplement of paper PMC12764529 are described below.

The nature of data set [1]: folding stability dG unfold from chymotrypsin proteolysis; higher = more stable. An outline of the steps: (§1)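 Unfolding free energy was derived, per protease or combined, by relating Bayesian-fitted K50 values from sequencing counts to a sequence-predicted unfolded-state K50 and a shared folded-state K50. The underlying digests exposed cysteine-free mini-proteins under 80 residues, in a PA-tagged cDNA display construct, to trypsin and chymotrypsin at 11 threefold-diluted concentrations and to a no-protease condition. A filter kept only designs with AlphaFold2 dimer inter-PAE above 15.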

Data set [2] is described as follows: folding stability dG unfold from trypsin proteolysis; higher = more stable. An outline of the steps:
as §1

The nature of data set [3]: folding stability dG unfold (combined trypsin and chymotrypsin); higher = more stable. The essentials: as §1

± gives the half width of the 95% confidence interval.

As to “SAGGSANNWKPIGEFPFRHPDGWRVTVPIWRDPGEGNIKINVKYQGPNGPPSKQMKEWAKKLLDEISAGGSA [r15_529_TrROS]”, the entries for the “folding stability dG unfold” value in data set [1], in data set [2] and in data set [3] were 0.654 ± 0.32 kcal/mol, 0.936 ± 0.15 kcal/mol and 0.866 ± 0.31 kcal/mol, respectively.
Turning to “SAGGSANPNGKPWVEVEVSFMIPIDDEDIADALGGPPKPGDWLMITVKIRVYPDGNVEIDINLHPMSAGGSA [r15_91_TrROS]”, the “folding stability dG unfold” value in data set [1] came to 3.88 ± 0.22 kcal/mol; in data set [2], 3.96 ± 0.14 kcal/mol; in data set [3] it was 3.95 ± 0.19 kcal/mol.
As for “SAGGSANWYIKITIEYPNGREWEIPFPFKSVEDVKDQIKNAAREYFPNLPPEDVKIDDIELYPLDDSAGGSA [r15_220_TrROS]”, the entries for the “folding stability dG unfold” value in data set [1], in data set [2] and in data set [3] were 2.01 ± 0.04 kcal/mol, 1.3 ± 0.056 kcal/mol and 1.83 ± 0.097 kcal/mol, respectively.
In the same order, the values of “SAGGSAPARIVLPGGRTRTLRLSEISPELLAAFPDVLVRLPGGEVRRLPADTLLSLEGDYTLVVPGSAGGSA [r15_733_TrMRF]” are 0.573 ± 0.12 kcal/mol, -0.262 ± 0.18 kcal/mol and 0.335 ± 0.099 kcal/mol.
For “SAGGSAPDWKIVDIEPTDNSITITVEAPPGVRVMIFNPGNGKVQHRPFPPGDTITIPPRMYIMVWVSAGGSA [r15_418_TrROS]” the same measures were 3.121 ± 0.03 kcal/mol, 2.43 ± 0.032 kcal/mol and 2.84 ± 0.081 kcal/mol.
For the sequence “SAGGSAPEALVFVERREDDSLTVVVLFPDGTLVTRRVEVRDEGVTVETETAPVLVIPEPGRLELALSAGGSA [r15_746_TrMRF]”, the “folding stability dG unfold” value was 1.39 ± 0.046 kcal/mol in data set [1], 0.595 ± 0.029 kcal/mol in data set [2] and 1.14 ± 0.051 kcal/mol in data set [3].
Regarding “SAGGSAPEPIRFYFWWPGKIIEITIPPDEIEKVEIKPDNGDIDITVKLPGEEVEISITPGAIHVQTSAGGSA [r15_598_TrROS]”, the “folding stability dG unfold” value in data set [1] worked out at 2.57 ± 0.032 kcal/mol; in data set [2], 1.56 ± 0.11 kcal/mol; in data set [3], 2.29 ± 0.17 kcal/mol.
Take “SAGGSAPFPIKISTIRYPDGYIRMEIWIPPDAPIKIKFPNGFEMEVEPVPNGYYRITMYFRIPKEDSAGGSA [r15_523_TrROS]”: the “folding stability dG unfold” value worked out at 4.79 ± 0.11 kcal/mol in data set [1], 3.77 ± 0.094 kcal/mol in data set [2] and 4.53 ± 0.15 kcal/mol in data set [3].
As to “SAGGSAPGEPIFIRWKIEHPNGNPWTIPFPIKTEEQALEQAIRFAESIAKKLGNPNVKIKIDEIIPSAGGSA [r15_698_TrROS]”, the “folding stability dG unfold” value in data set [1] is 0.575 ± 0.44 kcal/mol; in data set [2], 1.11 ± 0.12 kcal/mol; in data set [3], 0.914 ± 0.21 kcal/mol.
As for “SAGGSAPGWYPITYEFEDNNKEIKIEVYYPKEDPMVGVDIEDPDGKVIFTIWFPADNAEKALKEILSAGGSA [r15_940_TrROS]”, the entries for the “folding stability dG unfold” value in data set [1], in data set [2] and in data set [3] were 1.49 ± 0.071 kcal/mol, 1.23 ± 0.07 kcal/mol and 1.39 ± 0.092 kcal/mol, respectively.
In the same order, the values of “SAGGSAPKEGTIWIMIPVRYERDPNGKVKPISAEQIADLFQELGFPIKIDEIFDSPGYIMIRIKVKSAGGSA [r15_225_TrROS]” are 3.204 ± 0.032 kcal/mol, 2.5 ± 0.075 kcal/mol and 3.04 ± 0.16 kcal/mol.
Take “SAGGSAPLPPGAVVEIVEVRFDPETRRIEMVVKVYDANGELVATLRVELEFDPETNELTLRVELLPSAGGSA [r15_1028_TrROS_Hall]”: the “folding stability dG unfold” value in data set [1] came out at 4.5 ± 0.18 kcal/mol; in data set [2] it was 3.41 ± 0.24 kcal/mol; in data set [3], 4.23 ± 0.14 kcal/mol.
Take “SAGGSAPMFEIWFRDPEAIEKLLEESGFPVSIERFPNDPNWVKITIFMKGPMEEAQDKLREALGLESAGGSA [r15_118_TrROS]”: the results for the “folding stability dG unfold” value in data set [1], in data set [2] and in data set [3] were 2.95 ± 0.014 kcal/mol, 2.29 ± 0.04 kcal/mol and 2.74 ± 0.036 kcal/mol, respectively.
For the sequence “SAGGSAPPEWRTIMIPMKPDDVDNAIEELRNELPPGRNINIHLQDPEPGRYFMITIRGNKIEIHFMSAGGSA [r15_257_TrROS]”, the “folding stability dG unfold” value in data set [1] was 2.12 ± 0.21 kcal/mol; in data set [2], 2.1 ± 0.17 kcal/mol; in data set [3] it was 2.29 ± 0.17 kcal/mol.
For “SAGGSAPPNWRRIEITFYIPPGQPTVSELADHIAKRIGFPVTGVEIDKVERNPDGAYEVKVSIIVPSAGGSA [r15_654_TrROS]” the same measures were 2.9 ± 0.054 kcal/mol, 2.69 ± 0.056 kcal/mol and 2.75 ± 0.15 kcal/mol.
In the same order, the values of “SAGGSAPREIPIMIRVPGYQIEIHKITVPPNGMVQIGLEWRNPGGDKPVTINIWLPLNEIKDFIKASAGGSA [r15_56_TrROS]” are 3.1 ± 0.042 kcal/mol, 1.83 ± 0.042 kcal/mol and 2.54 ± 0.14 kcal/mol.
For the sequence “SAGGSAPSISYTDPNITTITVNPPYITTTRPDGTTTVYKVNNGGDITKLKTTPPVPPAAATDASVASAGGSA [r15_393_JUSTAS]”, the results for the “folding stability dG unfold” value in data set [1], in data set [2] and in data set [3] were 0.421 ± 0.13 kcal/mol, -0.17 ± 0.071 kcal/mol and 0.148 ± 0.16 kcal/mol, respectively.
In the same order, the values of “SAGGSAPSPEVPLWRFEAPGASGGVALIEGYPGGELRVVFFTDDGRPVELTFPVVVLPPAPLEELFSAGGSA [r15_478_TrMRF]” are 1.24 ± 0.086 kcal/mol, 1.51 ± 0.039 kcal/mol and 1.38 ± 0.075 kcal/mol.
As to “SAGGSAPSSGNVLEIKVEKLPDGTLVGTLTVKDPNSSNTTTIEITIPSSKTPEEAEAELKKIVEEASAGGSA [r15_181_JUSTAS]”, the “folding stability dG unfold” value in data set [1] stood at 2.09 ± 0.025 kcal/mol; in data set [2] it was 2.11 ± 0.068 kcal/mol; in data set [3] it was 2.11 ± 0.057 kcal/mol.
Consider “SAGGSAPSVFPFKAKFKDYDLEIKSITVYENGEVEINAIAYNPDGKKKVELNITLPYSEILDLLKSSAGGSA [r15_56_TrMRF]”, for which the “folding stability dG unfold” value was 2.68 ± 0.037 kcal/mol in data set [1], 2.35 ± 0.059 kcal/mol in data set [2] and 2.55 ± 0.094 kcal/mol in data set [3].
For “SAGGSAPVVVVVTPKNGKPIKLKFKFTKKEEAEAAVEEIKKALPKNTKVEAFYVDEEVVKEDKEYLSAGGSA [r15_469_TrMRF]” the same measures were 1.97 ± 0.068 kcal/mol, 1.16 ± 0.017 kcal/mol and 1.71 ± 0.054 kcal/mol.
As to “SAGGSARVVILPDGYLLVEVDGKPFLFGPNDEVEIEEEGDELILRLRLRDKDGKEVGEFPFRFRLESAGGSA [r15_424_TrMRF]”, the “folding stability dG unfold” value worked out at 3.026 ± 0.016 kcal/mol in data set [1], 2.71 ± 0.039 kcal/mol in data set [2] and 2.9 ± 0.055 kcal/mol in data set [3].
For “SAGGSASAEEAARAFVAAHPDRALVEVEIERSFIPEKGVEVVTLTVTLAFPDGSRRVVPVTVTRPRSAGGSA [r15_266_JUSTAS]” the same measures were 1.06 ± 0.044 kcal/mol, 1.11 ± 0.044 kcal/mol and 1.13 ± 0.071 kcal/mol.
For “SAGGSASIEIPVGDKPVRIEILSLEPEGERVRARAVVYFPDDPEYREISGDLTLEELIDAILEAIGSAGGSA [r15_944_TrMRF]” the same measures were 1.148 ± 0.011 kcal/mol, 1.3 ± 0.016 kcal/mol and 1.21 ± 0.074 kcal/mol.
In the same order, the values of “SAGGSASIGEELAKELFPDLPLKVEPKEVPLEDGKTETVVTATFPDGKKVTITFEGDKIVEVTEVESAGGSA [r15_417_JUSTAS]” are 0.994 ± 0.074 kcal/mol, 0.445 ± 0.095 kcal/mol and 0.718 ± 0.11 kcal/mol.
Regarding “SAGGSASLEEVIESVTKPLGAKGEIDPETGVTYVQDPSGENLTLETEDGRPLKVTYEPEGKWTAVESAGGSA [r15_256_JUSTAS]”, the “folding stability dG unfold” value in data set [1] was -0.199 ± 0.45 kcal/mol; in data set [2] it was 0.301 ± 0.046 kcal/mol; in data set [3] it was 0.24 ± 0.28 kcal/mol.
For “SAGGSASLQTSTASVSPGALEKAIEAAKAAPPGTAVSVSFGDPVVGTPRPVTLTVDSAGNLVEITGSAGGSA [r15_228_JUSTAS]” the same measures were 0.0446 ± 0.08 kcal/mol, 0.376 ± 0.029 kcal/mol and 0.188 ± 0.097 kcal/mol.
In the same order, the values of “SAGGSASMGVSVAAIAEALDAARPAGAPPLVYVKLPNGEVVRVSPDESLTSISPEGEVEIEIRFLPSAGGSA [r15_50_JUSTAS]” are 0.81 ± 0.022 kcal/mol, 0.907 ± 0.018 kcal/mol and 0.878 ± 0.04 kcal/mol.
For “SAGGSASMIFADDPAQAEAYVKPLFPNGPPFDIVELSEEEGKELVEKLKKEGKPYKVIVIKDPSKPSAGGSA [r15_567_JUSTAS]” the same measures were 0.507 ± 0.42 kcal/mol, 0.192 ± 0.19 kcal/mol and 0.341 ± 0.3 kcal/mol.
In the case of “SAGGSASMSNVTSYVTVYKKPGVDDLYYKVRILAPSEPKVIEIPESEIPKYEKEGIKIEKVSEELLSAGGSA [r15_783_JUSTAS]”, the “folding stability dG unfold” value in data set [1] is 1.96 ± 0.32 kcal/mol; in data set [2] it was 0.901 ± 0.36 kcal/mol; in data set [3], 1.28 ± 0.34 kcal/mol.
“SAGGSASPVLTTVTFPGSPEELEAYAAEVRAAGTLLSVSFSPSPDPSYYTITLQVRAPDGTYFTAESAGGSA [r15_177_JUSTAS]”: the “folding stability dG unfold” value in data set [1] was found to be 1.55 ± 0.083 kcal/mol; in data set [2], 1.14 ± 0.03 kcal/mol; in data set [3] it was 1.39 ± 0.061 kcal/mol.
For “SAGGSASSMTTTKKLSTGEKSVVELSTSPSTVTLVTTDPETGTVTVTTYTPSGTGPVATTTTVPAPSAGGSA [r15_137_JUSTAS]” the same measures were 0.499 ± 0.14 kcal/mol, -0.431 ± 0.13 kcal/mol and 0.177 ± 0.097 kcal/mol.
For “SAGGSASTYEPEVYTFTGKNKKIKVIVVKPKDNPTAKIIVYDENGNVLATIEFPAENVEKALKELASAGGSA [r15_940_TrMRF]” the same measures were 2.12 ± 0.064 kcal/mol, 2.02 ± 0.029 kcal/mol and 2.1 ± 0.083 kcal/mol.
For “SAGGSASVKVEITEIKSSNPESSSNKIDIPVKVYDPETGKEVLSVEEIAKKIEEENPGKPVGYVPESAGGSA [r2_27_JUSTAS]” the same measures were 0.0963 ± 0.17 kcal/mol, 0.293 ± 0.093 kcal/mol and 0.281 ± 0.17 kcal/mol.
As for “SAGGSASVLEEAIEEAKKLPPGSVVPLTVTVPTDGEPVVYEILITVHPGENTIEVEKKRKFSPERLSAGGSA [r15_724_JUSTAS]”, the “folding stability dG unfold” value in data set [1] is 0.779 ± 0.1 kcal/mol; in data set [2] it was -0.411 ± 0.14 kcal/mol; in data set [3] it was 0.439 ± 0.095 kcal/mol.
For “SAGGSASVSDVTTTTVTVTVEVTEDPATGLQRLTATHPDLSFERLVPAGTIPADTTVTLDVTVTTGSAGGSA [r15_190_JUSTAS]”, the “folding stability dG unfold” value in data set [1] came out at 0.452 ± 0.014 kcal/mol; in data set [2] it was 0.0934 ± 0.028 kcal/mol; in data set [3], 0.322 ± 0.046 kcal/mol.
